{"source": "paper PMC10563079", "about": "(Molecules, 2023)", "molecules": {"B1": {"name": "cyclic peptide cyc1-1 (peptide)", "peptide": "CTPQATASMKDGKWERKKC", "modifications": "disulfide 1-19; not fully specified (N-terminus); printed as C_1_TPQATASMKDGKWERKKC_19_"}, "B2": {"name": "double constrained cyclic peptide cyc2-2 (peptide)", "peptide": "CTPQATACMLDGKWCRKKC", "modifications": "disulfide 1-19, 8-15; not fully specified (N-terminus); printed as C_1_TPQA TAC_8_ML DGKWC_15_ RKKC_19_"}, "B3": {"name": "double constrained cyclic peptide cyc2-4 (peptide)", "peptide": "CTPQATACMWDGKWCRKKC", "modifications": "disulfide 1-19, 8-15; not fully specified (N-terminus); printed as C_1_TPQA TAC_8_MW DGKWC_15_ RKKC_19_"}, "B4": {"name": "double constrained cyclic peptide cyc2-5 (peptide)", "peptide": "CTPQATACMKDGKWCWKKC", "modifications": "disulfide 1-19, 8-15; not fully specified (N-terminus); printed as C_1_TPQA TAC_8_MK DGKWC_15_ WKKC_19_"}, "B5": {"name": "double constrained cyclic peptide cyc2-6 (peptide)", "peptide": "CTPQATACMLDGKWCEKKC", "modifications": "disulfide 1-19, 8-15; not fully specified (N-terminus); printed as C_1_TPQA TAC_8_ML DGKWC_15_ EKKC_19_"}, "B6": {"name": "cyclic peptide cyc1-3 (peptide)", "peptide": "CTPQATKSMLDGKWEEKKC", "modifications": "disulfide 1-19; not fully specified (N-terminus); printed as C_1_TPQA TKSML DGKWE EKKC_19_"}, "B7": {"name": "cyclic peptide cyc1-7 (peptide)", "peptide": "CTPQATLTMKDGKWEEKKC", "modifications": "disulfide 1-19; not fully specified (N-terminus); printed as C_1_TPQA TLTMK DGKWE EKKC_19_"}}, "key": {"sPHGDH (1-307)": {"target": "T1, sPHGDH (1-307) (Homo sapiens, UniProt O43175)", "T1 construct": "the truncated version of PHGDH (sPHGDH, 1-307); made in house", "T1 sequence (O43175 1-307)": "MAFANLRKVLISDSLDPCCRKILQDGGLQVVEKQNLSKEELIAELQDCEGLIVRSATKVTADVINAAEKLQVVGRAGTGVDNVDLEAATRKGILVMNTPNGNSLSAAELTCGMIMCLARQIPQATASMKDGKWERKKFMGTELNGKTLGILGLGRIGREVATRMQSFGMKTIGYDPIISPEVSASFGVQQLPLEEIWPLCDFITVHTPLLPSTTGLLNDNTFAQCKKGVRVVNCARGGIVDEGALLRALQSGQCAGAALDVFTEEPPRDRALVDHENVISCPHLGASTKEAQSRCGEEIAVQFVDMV", "test": "sPHGDH enzyme activity assay (NADH fluorescence)", "format": "biochemical", "conditions": "for Inhibition Rate (%): peptide concentration of 50 µM; for Inhibition Rate (%) / inhibitory activity on sPHGDH (in words): sPHGDH", "protocol": "(§1) PHGDH activity in the presence of peptides was measured in 96-well plates (100 μL per well) at 25 °C, through monitoring the NADH fluorescence (excitation at 360 nm and emission at 460 nm) over time. PAST1 and its substrate glutamate were also included in order to prevent product inhibition. In the enzyme assays, protein expression and purification, including the truncated version of PHGDH (sPHGDH, 1-307), the full-length PHGDH (1-533), and PAST1, were carried out as described in our previous papers. To evaluate the effects of peptides on enzyme activity, the peptides were pre-incubated with enzyme samples (sPHGDH 453.3 nM or PHGDH 30.9 nM) in the assay buffer (HEPES 50 mM, pH 7.5, 10 mM MgCl2, and 1 mM EDTA) for 12 h. Then, 1.98 μM PAST1, 1 mM NAD^+, and 30 mM glutamate were added and pre-incubated for 10 min before initiating the enzyme reaction via the addition of the substrate (1 mM 3-PG). Fluorescence signals were recorded for 3 min with the kinetics-reading mode of the Biotek plate reader (Synergy). IC50 values were obtained through fitting the data using a three-parameter Hill model of the graph of log dose against the percentage inhibition from three repeated experiments. For those peptides containing two disulfide bonds, a second step of oxidation reaction was carried out to generate the second disulfide pair. […] The purified Acm-protected peptide was then treated with iodine (I2, 1 wt% in MeOH), dropwise under acidic conditions until the solution became brown."}, "[1]": {"target": "T2, full-length PHGDH (1-533) (Homo sapiens, UniProt O43175)", "T2 construct": "the full-length PHGDH (1-533); made in house", "T2 sequence (O43175 1-533)": "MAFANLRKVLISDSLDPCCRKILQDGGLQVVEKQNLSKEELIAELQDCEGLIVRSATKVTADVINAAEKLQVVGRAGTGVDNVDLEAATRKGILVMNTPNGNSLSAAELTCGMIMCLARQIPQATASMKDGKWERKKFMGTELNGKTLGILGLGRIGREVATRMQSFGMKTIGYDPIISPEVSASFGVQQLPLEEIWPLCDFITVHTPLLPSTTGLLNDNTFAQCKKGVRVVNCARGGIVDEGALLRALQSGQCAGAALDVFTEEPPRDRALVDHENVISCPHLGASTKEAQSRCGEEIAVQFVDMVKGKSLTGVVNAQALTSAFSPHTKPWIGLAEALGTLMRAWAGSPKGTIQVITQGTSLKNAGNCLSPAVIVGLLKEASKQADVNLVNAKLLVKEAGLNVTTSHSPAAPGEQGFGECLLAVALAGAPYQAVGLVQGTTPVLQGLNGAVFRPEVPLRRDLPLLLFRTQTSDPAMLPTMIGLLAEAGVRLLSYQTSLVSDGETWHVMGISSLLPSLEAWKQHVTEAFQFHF", "test": "full-length PHGDH enzyme activity assay (NADH fluorescence)", "format": "biochemical", "protocol": "as §1"}, "[2]": {"target": "truncated version of PHGDH (sPHGDH, 1-307) (human) (UniProt O43175)"}, "[3]": {"conditions": "read-out: IC50 value (μM), full-length PHGDH activity"}}, "note": "Like-named read-outs stand apart in the source and are kept apart here. Bridge positions count the residues as written; N and C are the ends. Ends that are not written are not given here. Peptide text beside a SMILES is read from it."}
{"molecule": "C1TPQA TKSML DGKWE EKKC19 (CTPQATKSMLDGKWEEKKC; disulfide 1-19; not fully specified (N-terminus); printed as C_1_TPQA TKSML DGKWE EKKC_19_) [Cyc1-3, single disulfide cyclic peptide with substitution A7K]", "values": [{"measurement": "Inhibition Rate (%)", "setting": "sPHGDH (1-307)", "value": 19, "unit": "%"}, {"measurement": "inhibitory activity on sPHGDH (in words)", "setting": "sPHGDH (1-307)", "value": "largely decreased or abolished the activity"}]}
{"molecule": "C1TPQA TASMK DGKWE RKKC19 (CTPQATASMKDGKWERKKC; disulfide 1-19; not fully specified (N-terminus); printed as C_1_TPQATASMKDGKWERKKC_19_) [Cyc1-1, head-to-tail disulfide-cyclized peptide (C1-C19) from the PHGDH dimerization loop]", "values": [{"measurement": "Inhibition Rate (%)", "setting": "sPHGDH (1-307)", "value": 40, "unit": "%"}, {"measurement": "inhibitory activity on sPHGDH (in words)", "setting": "sPHGDH (1-307)", "value": "limited activity"}]}
{"molecule": "CSCC[C@@H]1NC(=O)[C@@H]2CSSC[C@H](NC(=O)[C@H](Cc3c[nH]c4ccccc34)NC(=O)[C@H](CCCCN)NC(=O)CNC(=O)[C@H](CC(=O)O)NC(=O)[C@H](CC(C)C)NC1=O)C(=O)N[C@@H](CCCNC(=N)N)C(=O)N[C@@H](CCCCN)C(=O)N[C@@H](CCCCN)C(=O)N[C@H](C(=O)O)CSSC[C@H](NC(C)=O)C(=O)N[C@@H]([C@@H](C)O)C(=O)N1CCC[C@H]1C(=O)N[C@@H](CCC(N)=O)C(=O)N[C@@H](C)C(=O)N[C@@H]([C@@H](C)O)C(=O)N[C@@H](C)C(=O)N2", "note": "[Cyc2-2, C1TPQA TAC8ML DGKWC15 RKKC19] (Ac-CTPQATACMLDGKWCRKKC-OH; disulfide 1-19, 8-15)", "values": [{"measurement": "IC50", "setting": "[1]; IC50 value (μM), full-length PHGDH activity", "value": "32.9 ± 4", "unit": "µM"}, {"measurement": "IC50", "setting": "sPHGDH (1-307)", "value": "9.4 ± 1.5", "unit": "µM"}]}
{"molecule": "CSCC[C@@H]1NC(=O)[C@H](CO)NC(=O)[C@H](CC(C)C)NC(=O)[C@H]([C@@H](C)O)NC(=O)[C@H](C)NC(=O)[C@H](CCC(N)=O)NC(=O)[C@@H]2CCCN2C(=O)[C@H]([C@@H](C)O)NC(=O)[C@@H](NC(C)=O)CSSC[C@@H](C(=O)O)NC(=O)[C@H](CCCCN)NC(=O)[C@H](CCCCN)NC(=O)[C@H](CCC(=O)O)NC(=O)[C@H](CCC(=O)O)NC(=O)[C@H](Cc2c[nH]c3ccccc23)NC(=O)[C@H](CCCCN)NC(=O)CNC(=O)[C@H](CC(=O)O)NC(=O)[C@H](CCCCN)NC1=O", "note": "[Cyc1-2, C1TPQA TLSMK DGKWE EKKC19] (Ac-CTPQATLSMKDGKWEEKKC-OH; disulfide 1-19)", "values": [{"measurement": "IC50", "setting": "[1]; [3]", "value": "20.1 ± 2.6", "unit": "µM"}]}
{"molecule": "C1TPQA TESML RGKWE EKKC19 (CTPQATESMLRGKWEEKKC; disulfide 1-19; not fully specified (N-terminus); printed as C_1_TPQA TESML RGKWE EKKC_19_) [Cyc1-4, single disulfide cyclic peptide with A7E and D11R]", "values": [{"measurement": "Inhibition Rate (%)", "setting": "sPHGDH (1-307)", "value": "None"}, {"measurement": "inhibitory activity on sPHGDH (in words)", "setting": "sPHGDH (1-307)", "value": "largely decreased or abolished the activity"}]}
{"molecule": "CSCC[C@@H]1NC(=O)[C@H](CO)NC(=O)[C@H](C)NC(=O)[C@H]([C@@H](C)O)NC(=O)[C@H](C)NC(=O)[C@H](CCC(N)=O)NC(=O)[C@@H]2CCCN2C(=O)[C@H]([C@@H](C)O)NC(=O)[C@@H](NC(C)=O)CSSC[C@@H](C(=O)O)NC(=O)[C@H](CCCCN)NC(=O)[C@H](CCCCN)NC(=O)[C@H](CCC(=O)O)NC(=O)[C@H](CCC(N)=O)NC(=O)[C@H](Cc2c[nH]c3ccccc23)NC(=O)[C@H](CO)NC(=O)CNC(=O)[C@H](CC(N)=O)NC(=O)[C@H](CCCCN)NC1=O", "note": "[Cyc1-9, C1TPQA TASMK NGSWQ EKKC19] (Ac-CTPQATASMKNGSWQEKKC-OH; disulfide 1-19)", "values": [{"measurement": "IC50", "setting": "[1]; [3]", "value": "56.1 ± 3.4", "unit": "µM"}]}
{"molecule": "C1TPQA TAC8MW DGKWC15 RKKC19 (CTPQATACMWDGKWCRKKC; disulfide 1-19, 8-15; not fully specified (N-terminus); printed as C_1_TPQA TAC_8_MW DGKWC_15_ RKKC_19_) [Cyc2-4, cyc2-1 with K10W]", "values": [{"measurement": "Inhibition Rate (%)", "setting": "sPHGDH (1-307)", "value": 44, "unit": "%"}]}
{"molecule": "C1TPQA TLLMK DGKWE EKKC19 (CTPQATLLMKDGKWEEKKC; disulfide 1-19; not fully specified (N-terminus); printed as C_1_TPQA TLLMK DGKWE EKKC_19_) [Cyc1-8, cyc1-2 with substitution S8L]", "values": [{"measurement": "Inhibition Rate (%)", "setting": "sPHGDH (1-307)", "value": "None"}, {"measurement": "inhibitory activity on sPHGDH (in words)", "setting": "sPHGDH (1-307)", "value": "completely eliminated the activity"}]}
{"molecule": "C1TPQA TLSMK NGSWQ EKKC19 (CTPQATLSMKNGSWQEKKC; disulfide 1-19; not fully specified (N-terminus); printed as C_1_TPQA TLSMK NGSWQ EKKC_19_) [Cyc1-10, cyc1-9 with added A7L]", "values": [{"measurement": "Inhibition Rate (%)", "setting": "sPHGDH (1-307)", "value": "None"}, {"measurement": "inhibitory activity on sPHGDH (in words)", "setting": "sPHGDH (1-307)", "value": "inactive"}]}
{"molecule": "C1TPQA TAC8MK DGKWC15 WKKC19 (CTPQATACMKDGKWCWKKC; disulfide 1-19, 8-15; not fully specified (N-terminus); printed as C_1_TPQA TAC_8_MK DGKWC_15_ WKKC_19_) [Cyc2-5, cyc2-1 with R16W]", "values": [{"measurement": "Inhibition Rate (%)", "setting": "sPHGDH (1-307)", "value": 27, "unit": "%"}]}
{"molecule": "B1", "values": [{"measurement": "Inhibition rate of sPHGDH enzyme activity (NADH fluorescence) at 50 µM peptide; the pair blocked is the sPHGDH homo-dimer (m1+m1)", "setting": "[2]", "value": 40, "unit": "%"}]}
{"molecule": "B2", "values": [{"measurement": "IC50 of inhibition of sPHGDH enzyme activity (NADH fluorescence); the pair blocked is the sPHGDH homo-dimer (m1+m1)", "setting": "[2]", "value": 9.4, "unit": "µM"}]}
{"molecule": "B3", "values": [{"measurement": "Inhibition rate of sPHGDH enzyme activity (NADH fluorescence) at 50 µM peptide; the pair blocked is the sPHGDH homo-dimer (m1+m1)", "setting": "[2]", "value": 44, "unit": "%"}]}
{"molecule": "B4", "values": [{"measurement": "Inhibition rate of sPHGDH enzyme activity (NADH fluorescence) at 50 µM peptide; the pair blocked is the sPHGDH homo-dimer (m1+m1)", "setting": "[2]", "value": 27, "unit": "%"}]}
{"molecule": "B5", "values": [{"measurement": "IC50 of inhibition of sPHGDH enzyme activity (NADH fluorescence); the pair blocked is the sPHGDH homo-dimer (m1+m1)", "setting": "[2]", "value": 15, "unit": "µM"}]}
{"molecule": "B6", "values": [{"measurement": "Inhibition rate of sPHGDH enzyme activity (NADH fluorescence) at 50 µM peptide; the pair blocked is the sPHGDH homo-dimer (m1+m1)", "setting": "[2]", "value": 19, "unit": "%"}]}
{"molecule": "B7", "values": [{"measurement": "IC50 of inhibition of sPHGDH enzyme activity (NADH fluorescence); the pair blocked is the sPHGDH homo-dimer (m1+m1)", "setting": "[2]", "value": 5.6, "unit": "µM"}]}
